{
  "source": "paper PMC6514982",
  "about": "“Disruption of Structural Disulfides of Coagulation FXIII-B Subunit; Functional Implications for a Rare Bleeding Disorder” (International Journal of Molecular Sciences, 2019)",
  "proteins": {"B1": {"name": "recombinant wild type FXIII-B subunit (coagulation Factor XIII B subunit) (natural protein, human, UniProt P05160 21-661, looked up)", "chain": "EEKPCGFPHVENGRIAQYYYTFKSFYFPMSIDKKLSFFCLAGYTTESGRQEEQTTCTTEGWSPEPRCFKKCTKPDLSNGYISDVKLLYKIQENMRYGCASGYKTTGGKDEEVVQCLSDGWSSQPTCRKEHETCLAPELYNGNYSTTQKTFKVKDKVQYECATGYYTAGGKKTEEVECLTYGWSLTPKCTKLKCSSLRLIENGYFHPVKQTYEEGDVVQFFCHENYYLSGSDLIQCYNFGWYPESPVCEGRRNRCPPPPLPINSKIQTHSTTYRHGEIVHIECELNFEIHGSAEIRCEDGKWTEPPKCIEGQEKVACEEPPFIENGAANLHSKIYYNGDKVTYACKSGYLLHGSNEITCNRGKWTLPPECVENNENCKHPPVVMNGAVADGILASYATGSSVEYRCNEYYLLRGSKISRCEQGKWSSPPVCLEPCTVNVDYMNRNNIEMKWKYEGKVLHGDLIDFVCKQGYDLSPLTPLSELSVQCNRGEVKYPLCTRKESKGMCTSPPLIKHGVIISSTVDTYENGSSVEYRCFDHHFLEGSREAYCLDGMWTTPPLCLEPCTLSFTEMEKNNLLLKWDFDNRPHILHGEYIEFICRGDTYPAELYITGSILRMQCDRGQLKYPRCIPRQSTLSYQEPLRT", "notes": "Coagulation factor XIII B chain, human; F13B cDNA (ORF length 1986 bp) in the pEZ-M01 vector; The whole ORF was expressed; the secreted product was analysed; also called rFXIII-B; rFXIII-B2; source: HEK293T, transiently transfected, secreted into the culture medium"}},
  "molecular_target": "the molecule itself",
  "assay": "native gel or EMSA; non-denaturing Native-PAGE (BN sample buffer), transfer to PVDF, Western blot with mouse anti-human FXIII-B antibody",
  "data": [
    {"protein": "B1", "values": [
      {"measurement": "stoichiometry N", "value": 2}
    ]}
  ]
}
